Assay results as given in the supplement of paper PMC10567573.

B1: ZNF207 (parent)
chain: FQPQPVQPQQGYIPPMAQPGLPPV

Variants of: B1
Experiment: protein stability index of a GFP-peptide fusion (GPS, HEK-293T) (PSI 1-6); higher = more stable
Settings: c terminus: a fixed tail appended
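Also: lentivirally expressed fusions sorted by FACS into six bins by GFP to DsRed ratio, PSI derived from sequencing read proportions per bin multiplied by bin number.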

Protein stability index of substitutions, site by site:
P5: F 2.33; D 3.18; K 3.17; E 3.62; N 2.8; M 2.61; S 3.18; A 3.22; G 3.45; L 2.88; T 2.62; H 3.15; C 2.29; W 1.62; R 2.58; Y 2.59; Q 2.99; I 2.63; V 2.57
P22: L 2.99; Q 3.33; A 3.37; F 2.54; I 2.68; H 2.83; N 2.74; E 3.08; D 3.06; K 3.4; G 2.74; S 2.13; W 1.85; T 2.7; V 2.72; R 2.88; M 2.4; C 2.38; Y 2.29
Q10: F 2.31; Y 2.64; R 2.79; G 3.39; L 2.16; T 3.34; D 3.54; C 2.5; A 2.84; W 1.95; I 2.12; K 2.98; S 2.86; H 2.62; M 2.81; V 2.04; N 3.28; E 3.1; P 3.07
I13: L 3.52; H 3.54; E 3.71; V 3.44; N 3.17; A 3.8; D 3.57; R 3.16; W 2.56; S 3.58; Q 3.59; C 3.33; M 2.99; Y 2.88; K 2.85; F 3.4; G 3.29
G11: R 3.21; D 3.63; Y 2.18; I 2.29; C 2.18; T 2.6; E 3.69; P 2.74; A 3.03; Q 3.18; K 2.89; S 2.8; N 2.93; H 3.21; F 2.45; W 2.19; L 2.65; V 2.56; M 2.66
P19: C 3.1; S 3.19; A 3.32; F 2.38; L 2.7; H 3.19; G 3.12
Q2: S 3.16; V 2.51; M 3.13; L 3.49; R 3.46; W 2.54; N 3.66; Y 2.92
Q18: K 2.88; R 3.37; S 2.95; M 2.7; N 3.11; L 2.91; W 2.03; C 2.37
Q4: K 2.92; F 2.42; W 1.81; R 2.78; C 3.01; Y 1.83; N 3.43; V 3.12; E 3.58; I 2.31; D 3.01; G 2.71; M 2.72; L 2.88; S 3.21
P15: S 2.87; V 3.23; I 2.17; T 3.14; K 2.81; H 2.74; L 2.72; A 3.13; F 2.3; R 2.97; M 2.62; Y 2.66; Q 3.09; N 3.45; W 1.73; C 2.45; G 3.07; D 3.04; E 2.96
Q9: E 3.45; F 2.34; S 3.43; L 2.54; T 3.01; H 3.24; D 3.59; K 2.91; N 2.72; C 2.77; M 2.88; G 2.74; I 2.89; Y 2.32; A 3.35; V 3.61; R 3.26; W 1.88
P8: R 2.61; K 3.15; C 2.54; E 3.22; W 2.31; M 2.47; Q 2.95; H 2.89; Y 2.53; A 3.27; F 2.88; V 2.92; G 2.96; I 3.1; N 3.03; T 2.91; S 2.97; L 3.19; D 3.32
G20: R 3.33; E 3.23; C 2.93; V 3.72; S 3.24; M 2.75; D 2.89; K 2.27; L 3.15; Q 3.46; W 1.7
V6: N 2.86; D 3.26; Y 2.75; R 2.92; I 2.96; G 3.1; L 3.06; S 3.19; M 2.71; F 2.19; W 2.62; C 2.89; E 3.61; K 3.08
M16: W 2.06; E 3.54; F 2.43; R 2.97; V 3.64; C 3.08; N 3.48; K 3.21; G 3.49; I 3.3; D 3.7; Y 2.82; S 3.5
L21: M 3.68; C 3.64; D 4.12; F 2.66; G 3.24; W 2.26; E 4.13; K 3.48; R 3.38; V 2.73
A17: N 3.59; H 3.12; C 3.27; L 2.85; G 2.98; P 3.04; R 3.15; T 3.22; D 3.35; M 3.4; I 3.17; S 3.86; Q 3.39; V 2.96; Y 2.25; K 3.04; W 1.93; F 2.5; E 3.42
P23: F 1.88; E 3.07; C 2.91; G 2.27; H 2.77; I 2.65; D 3.28; A 3.4
P14: K 2.83; E 2.86; N 2.5; H 2.75; C 2.61; D 3.37; R 2.81; W 1.98; M 2.88; V 2.9; I 2.63; G 2.79; S 3.08; F 2.93; A 2.96; L 2.52; Q 2.74; T 2.75; Y 2.65
Y12: G 3.53; I 3.29; V 3.86; W 2.6; S 3.81; T 3.69; C 3.55; M 3.72; R 3.66; N 3.77; L 3.81; E 3.77; F 2.81; P 3.6; Q 4.03; A 3.75; H 3.54; D 3.73; K 3.7
Q7: W 2.25; C 2.88; Y 2.5; I 3.29; L 3.04; D 3.26; H 2.82; E 2.98; S 3.5; K 3.04; F 2.72; M 3.21; G 2.78; V 3.63; R 2.83
P3: L 3.2; Y 3.13; D 3.62; K 3.04; W 2.26; F 2.49; R 3.25; G 3.8; T 3.95; S 3.73; A 3.48; M 3.38; H 3.8; E 3.94; Q 3.31; I 2.67; V 3.52; N 3.55; C 3.47
